# In US20240190986A1 (ZHEJIANG NANOMAB TECHNOLOGY CENTER, published 2024):
# Columns and labels:
# [1] = molecular target: T1, MSLN on SKOV3 and Aspc-1 tumor cells (UniProt Q13421 296-598); experiment: flow cytometry on Aspc-1 tumor cells, anti-human IgG PE secondary, fitted curve
# T1 construct: whole, on cells; Endogenous mesothelin of tumor cell lines; also called SKOV3 tumor cell line; AsPC-1 tumor cell line
# [2] = molecular target: T2, segment III of MSLN expressed on HEK293T cells (UniProt Q13421 487-598, limits assumed); experiment: flow cytometry on HEK293T cells expressing MSLN segment III, anti-human IgG PE secondary, fitted curve
# T2 construct: domain: segment III of MSLN; also called HEK293T MSLN-III cells; MSLN segment III protein overexpressing cell line
# T2 sequence (Q13421 495-606 limits assumed): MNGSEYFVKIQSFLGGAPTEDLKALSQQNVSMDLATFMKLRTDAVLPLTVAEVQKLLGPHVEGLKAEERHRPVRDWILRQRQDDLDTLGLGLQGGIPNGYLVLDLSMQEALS
# [3] = molecular target: T1, MSLN on SKOV3 and Aspc-1 tumor cells; experiment: flow cytometry on SKOV3 tumor cells, anti-human IgG PE secondary, fitted curve
# MSLN·His protein [4] = molecular target: T3, MSLN·His protein (human, UniProt Q13421 296-580, limits assumed); experiment: SPR (Biacore), antibody captured on protein A, MSLN·His as analyte
# T3 construct: Bought protein; also called human MSLN·His antigen; not shown: His tag
# T3 sequence (Q13421 other isoform, or with tags, fused parts or gaps limits assumed): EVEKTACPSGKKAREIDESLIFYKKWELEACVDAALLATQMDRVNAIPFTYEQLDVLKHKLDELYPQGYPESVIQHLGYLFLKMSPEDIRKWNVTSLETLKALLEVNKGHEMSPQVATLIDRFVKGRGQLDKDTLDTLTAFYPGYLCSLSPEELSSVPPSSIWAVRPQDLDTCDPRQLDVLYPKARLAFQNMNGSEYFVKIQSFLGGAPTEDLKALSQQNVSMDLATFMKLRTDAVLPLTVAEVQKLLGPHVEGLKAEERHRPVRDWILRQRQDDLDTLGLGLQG
# Description: (1) Detection of affinity at protein level: the binding kinetics and affinity of heavy chain antibody to human MSLN·His antigen were determined using surface plasmon resonance (SPR). The purified antibody was flowed through the sensor chips pre-immobilized with protein A, and the antibody was captured by protein A. Then five different concentrations of MSLN·His protein were used as the mobile phase, and the binding time and dissociation time were 30 min and 60 min, respectively. Biacore Evaluation Software 2.0 (GE) was used to analyze the binding rate (kon, or ka), dissociation rate (koff, or kd) and equilibrium constant (KD). The rabbit antibody YP218, which binds to segment III of mesothelin, was selected as a positive control (Zhang et al., Sci Rep 2015, 21; 5:9928).
# MSLN·His protein [5] = molecular target: T3, MSLN·His protein; experiment: ELISA, antigen coated, TG1 supernatant
# T1 sequence (Q13421 other isoform, or with tags, fused parts or gaps limits assumed): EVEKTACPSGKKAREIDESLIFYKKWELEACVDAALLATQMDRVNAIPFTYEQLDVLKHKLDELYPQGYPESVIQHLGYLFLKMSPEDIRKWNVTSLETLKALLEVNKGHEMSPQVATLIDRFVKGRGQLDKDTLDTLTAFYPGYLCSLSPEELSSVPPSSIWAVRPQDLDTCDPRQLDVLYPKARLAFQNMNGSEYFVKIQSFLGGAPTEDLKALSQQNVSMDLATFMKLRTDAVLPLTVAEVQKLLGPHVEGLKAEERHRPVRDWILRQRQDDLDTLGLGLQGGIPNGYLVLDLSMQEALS
EC50 [1] [nM],EC50 [2] [nM],EC50 [3] [nM],Kd (MSLN·His protein [4]) [nM],koff (MSLN·His protein [4]) [s⁻¹],kon (MSLN·His protein [4]) [M⁻¹ s⁻¹],ELISA (OD450) (MSLN·His protein [5]),Binder
5.37,4.15,1.05,0.09,5.4e-05,592000,–,"M156-IgG4 (antibody, V domains shown, also called M156 heavy chain antibody) VH: QVQLVESGGGLVQAGGSLRLSCAVSGISFEYYAIGWFRQAPGKEREAVSCTTSGTTSGGGVTDYADSLKGRFTISRDVAKNTVYLQMNNLTPEDTAVYYCAADIHCRGYVLFVPSDFGNWGQGTQVTVSS"
17.4,10.6,0.512,2.1,7.5e-05,53700,–,"M044-IgG4 (antibody, V domains shown, also called M044 heavy chain antibody) VH: QVQVVESGGGFVQAGGSLRLSCAASTPIISIAYMGWYRQISEKERQLVATINSGGKTYYADSVKGRFTISRDNAKNTLYLQMNMLKPEDTGMYYCAASNKDYNDYDPDWGQGTQVTVSS"
–,–,–,–,–,–,2.15,"M2339 (VHH, Nanoantibody in TG1 supernatant in the screening ELISA; also called clone M2339) VHH: QLQLGASGGGLVQPGGSLRLSCALSGFTLRELDEFAIGWFRQAPGKEREGVSCISGTGGITHYADSVKGRFTISRDIAKTTVYLQMNSLNSEDTAVYYCAADERCTDRLIRPPTYWGQGTQVTVSS"
3.59,3.39,1.36,0.07,2.35e-05,359000,–,"M344-IgG4 (antibody, V domains shown, also called M344 heavy chain antibody) VH: QVQLVESGGGLVQSGGSLRLSCVASGSAFSFDAMGWYRQFSATRRERQLVVATSRDGRTYYADSVKGRFTATRDNSKNSLYLEMNSLKPEDTAIYYCAAGDDPKNYSWGQGTQVTVSS"
